Assay results from patent publication US20170349646A1.

Target: recombinant nucleoprotein derived from influenza virus subtype A H1N1 (Sino Biological, 40205-[change]) (influenza virus subtype A H1N1)

B1: VHH antibody consisting of the amino acid sequence represented by SEQ ID NO: 08 (VHH)
VHH: EVQLVESGGGLVQAGDSLRLSCAASGRTFINLDMGWFRQPPGKEREYVAAITRNGAITSYADSAKGRFTISRDNAKNTVSLEMNSLKPEDTGVYYCAAYSISNYGSGWYKPDYWGQGAQVTVSS
**Q.** For B1, which EC50 (read off the curve) is on record?
**A.** 0.2 µg/mL
